Measured values from US20180155451A1 (published 2018).

What follows are binders tested against T1, FcγRIIIa extracellular domain with C-terminal His tag (human, UniProt P08637 17-208) (assay: SPR relative binding; GpH7-A5/GpH7-B3/GpL16-k0 = 100).
T1 construct: extracellular domain; also called FcgRIIIa; 3a; not shown: His tag at the C terminus
Experimental: Analysis of interaction between objective antibody and the FcγR was carried out using Biacore T100 (GE Healthcare). HBS-EP+ (GE Healthcare) was used as the running buffer, and the measurement temperature was set to 25° C. Chips produced by immobilizing the antigen peptide by the amine coupling method to a Series S Sencor Chip CM5 (GE Healthcare), or alternatively, chips produced by allowing preliminarily biotinylated antigen peptides to interact with and immobilize onto a Series S Sensor Chip SA (certified) (GE Healthcare) were used. Antibodies of interest were captured onto an antigen peptide-immobilized chip, and allowed to interact to each FcγR diluted with running buffer. To regenerate and repeatedly use the chip, the antibodies captured on the chip were washed off by reacting 10 mM glycine-HCl, pH 1.5.
The FcγR-binding activity of each antibody was assessed primarily using as an indicator the FcγR-binding activity and dissociation constant for FcγR.

T1 sequence (P08637 17-208): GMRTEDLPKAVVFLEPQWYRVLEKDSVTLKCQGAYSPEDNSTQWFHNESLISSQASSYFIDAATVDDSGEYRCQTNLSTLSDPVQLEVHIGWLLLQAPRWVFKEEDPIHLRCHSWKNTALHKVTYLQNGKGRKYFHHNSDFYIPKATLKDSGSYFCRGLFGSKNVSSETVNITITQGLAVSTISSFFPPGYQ

| Binder | He/Con_3a | FcγRIIIa BINDING ACTIVITY |
| --- | --- | --- |
| GpH7-A5/GpH7-B3 variant T335_16H/GpL16-k0 (antibody, human IgG1, kappa, also called He Ab T335_16H) heavy 1: not shown heavy 2: not shown light: DIVMTQSPLSLPVTPGEPASISCQASESLVHSNRNTYLHWYLQKPGQSPQLLIYKVSNRFSGVPDRFSGSGSGTDFTLKISRVEAEDVGVYYCSQNTHVPPTFGQGTKVEIERTVAAPSVFIFPPSDEQLKSGTASVVCLLNNFYPREAKVQWKVDNALQSGNSQESVTEQDSKDSTYSLSSTLTLSKADYEKHKVYACEVTHQGLSSPVTKSFNRGEC | 104 % of control |  |
| GpH7-A5/GpH7-B3-03-20W/GpL16-k0 (antibody, human IgG1, kappa, also called He Ab G236_20W; GpH7-A5/GpH7-B3 variant G236_20W/GpL16-k0) heavy 1: not shown heavy 2: not shown light: DIVMTQSPLSLPVTPGEPASISCQASESLVHSNRNTYLHWYLQKPGQSPQLLIYKVSNRFSGVPDRFSGSGSGTDFTLKISRVEAEDVGVYYCSQNTHVPPTFGQGTKVEIERTVAAPSVFIFPPSDEQLKSGTASVVCLLNNFYPREAKVQWKVDNALQSGNSQESVTEQDSKDSTYSLSSTLTLSKADYEKHKVYACEVTHQGLSSPVTKSFNRGEC | 135 % of control | 140 % of control |
| GpH7-A5/GpH7-B3 variant V266_08L/GpL16-k0 (antibody, human IgG1, kappa, also called He Ab V266_08L) heavy 1: not shown heavy 2: not shown light: DIVMTQSPLSLPVTPGEPASISCQASESLVHSNRNTYLHWYLQKPGQSPQLLIYKVSNRFSGVPDRFSGSGSGTDFTLKISRVEAEDVGVYYCSQNTHVPPTFGQGTKVEIERTVAAPSVFIFPPSDEQLKSGTASVVCLLNNFYPREAKVQWKVDNALQSGNSQESVTEQDSKDSTYSLSSTLTLSKADYEKHKVYACEVTHQGLSSPVTKSFNRGEC | 118 % of control |  |
| GpH7-A5/GpH7-B3 variant T335_19Q/GpL16-k0 (antibody, human IgG1, kappa, also called He Ab T335_19Q) heavy 1: not shown heavy 2: not shown light: DIVMTQSPLSLPVTPGEPASISCQASESLVHSNRNTYLHWYLQKPGQSPQLLIYKVSNRFSGVPDRFSGSGSGTDFTLKISRVEAEDVGVYYCSQNTHVPPTFGQGTKVEIERTVAAPSVFIFPPSDEQLKSGTASVVCLLNNFYPREAKVQWKVDNALQSGNSQESVTEQDSKDSTYSLSSTLTLSKADYEKHKVYACEVTHQGLSSPVTKSFNRGEC | 102 % of control |  |
| GpH7-A5/GpH7-B3-15-02A/GpL16-k0 (antibody, human IgG1, kappa, H2 S298A) heavy 1: not shown heavy 2: not shown light: DIVMTQSPLSLPVTPGEPASISCQASESLVHSNRNTYLHWYLQKPGQSPQLLIYKVSNRFSGVPDRFSGSGSGTDFTLKISRVEAEDVGVYYCSQNTHVPPTFGQGTKVEIERTVAAPSVFIFPPSDEQLKSGTASVVCLLNNFYPREAKVQWKVDNALQSGNSQESVTEQDSKDSTYSLSSTLTLSKADYEKHKVYACEVTHQGLSSPVTKSFNRGEC |  | 163 % of control |
| GpH7-A5/GpH7-B3 variant T335_20W/GpL16-k0 (antibody, human IgG1, kappa, also called He Ab T335_20W) heavy 1: not shown heavy 2: not shown light: DIVMTQSPLSLPVTPGEPASISCQASESLVHSNRNTYLHWYLQKPGQSPQLLIYKVSNRFSGVPDRFSGSGSGTDFTLKISRVEAEDVGVYYCSQNTHVPPTFGQGTKVEIERTVAAPSVFIFPPSDEQLKSGTASVVCLLNNFYPREAKVQWKVDNALQSGNSQESVTEQDSKDSTYSLSSTLTLSKADYEKHKVYACEVTHQGLSSPVTKSFNRGEC | 102 % of control |  |
| GpH7-A5/GpH7-B3-01-15Y/GpL16-k0 (antibody, human IgG1, kappa, also called He Ab L234_15Y; GpH7-A5/GpH7-B3 variant L234_15Y/GpL16-k0) heavy 1: not shown heavy 2: not shown light: DIVMTQSPLSLPVTPGEPASISCQASESLVHSNRNTYLHWYLQKPGQSPQLLIYKVSNRFSGVPDRFSGSGSGTDFTLKISRVEAEDVGVYYCSQNTHVPPTFGQGTKVEIERTVAAPSVFIFPPSDEQLKSGTASVVCLLNNFYPREAKVQWKVDNALQSGNSQESVTEQDSKDSTYSLSSTLTLSKADYEKHKVYACEVTHQGLSSPVTKSFNRGEC | 130 % of control | 131 % of control |
| GpH7-A5/GpH7-B16/GpL16-k0 (antibody, human IgG1, kappa, also called He Ab L234_10E; GpH7-A5/GpH7-B3 variant L234_10E/GpL16-k0) heavy 1: not shown heavy 2: not shown light: DIVMTQSPLSLPVTPGEPASISCQASESLVHSNRNTYLHWYLQKPGQSPQLLIYKVSNRFSGVPDRFSGSGSGTDFTLKISRVEAEDVGVYYCSQNTHVPPTFGQGTKVEIERTVAAPSVFIFPPSDEQLKSGTASVVCLLNNFYPREAKVQWKVDNALQSGNSQESVTEQDSKDSTYSLSSTLTLSKADYEKHKVYACEVTHQGLSSPVTKSFNRGEC | 114 % of control |  |

More lines, now with the values ahead:

| He/Con_3a | FcγRIIIa BINDING ACTIVITY | Binder |
| --- | --- | --- |
| 117 % of control |  | GpH7-A5/GpH7-B17/GpL16-k0 (antibody, human IgG1, kappa, also called He Ab L234_09D; GpH7-A5/GpH7-B3 variant L234_09D/GpL16-k0) heavy 1: not shown heavy 2: not shown light: DIVMTQSPLSLPVTPGEPASISCQASESLVHSNRNTYLHWYLQKPGQSPQLLIYKVSNRFSGVPDRFSGSGSGTDFTLKISRVEAEDVGVYYCSQNTHVPPTFGQGTKVEIERTVAAPSVFIFPPSDEQLKSGTASVVCLLNNFYPREAKVQWKVDNALQSGNSQESVTEQDSKDSTYSLSSTLTLSKADYEKHKVYACEVTHQGLSSPVTKSFNRGEC |
|  | 151 % of control | GpH7-TA4/GpH7-B3-15-02A/GpL16-k0 (antibody, human IgG1, kappa, H1 L234Y and G236W; H2 S298A) heavy 1: QVQLVQSGAEVKKPGASVTVSCKASGYTFTDYEMHWIRQPPGEGLEWIGAIDPKTGDTAYSESFQDRVTLTADKSTSTAYMELSSLTSEDTAVYYCTRFYSYTYWGQGTLVTVSSASTKGPSVFPLAPSSKSTSGGTAALGCLVKDYFPEPVTVSWNSGALTSGVHTFPAVLQSSGLYSLSSVVTVPSSSLGTQTYICNVNHKPSNTKVDKKVEPKSCDKTHTCPPCPAPEYLWGPSVFLFPPKPKDTLMISRTPEVTCVVVDVSHEDPEVKFNWYVDGVEVHNAKTKPREEQYNSTYRVVSVLTVLHQDWLNGKEYKCKVSNKALPAPIEKTISKAKGQPREPQVYTLPPSRKELTKNQVSLTCLVKGFYPSDIAVEWESNGQPENNYKTTPPVLDSDGSFFLYSKLTVDKSRWQQGNVFSCSVMHEALHNRYTQKSLSLSP heavy 2: not shown light: DIVMTQSPLSLPVTPGEPASISCQASESLVHSNRNTYLHWYLQKPGQSPQLLIYKVSNRFSGVPDRFSGSGSGTDFTLKISRVEAEDVGVYYCSQNTHVPPTFGQGTKVEIERTVAAPSVFIFPPSDEQLKSGTASVVCLLNNFYPREAKVQWKVDNALQSGNSQESVTEQDSKDSTYSLSSTLTLSKADYEKHKVYACEVTHQGLSSPVTKSFNRGEC |
|  | 142 % of control | GpH7-TA1/GpH7-B3-15-02A/GpL16-k0 (antibody, human IgG1, kappa, H1 L234Y; H2 S298A) heavy 1: QVQLVQSGAEVKKPGASVTVSCKASGYTFTDYEMHWIRQPPGEGLEWIGAIDPKTGDTAYSESFQDRVTLTADKSTSTAYMELSSLTSEDTAVYYCTRFYSYTYWGQGTLVTVSSASTKGPSVFPLAPSSKSTSGGTAALGCLVKDYFPEPVTVSWNSGALTSGVHTFPAVLQSSGLYSLSSVVTVPSSSLGTQTYICNVNHKPSNTKVDKKVEPKSCDKTHTCPPCPAPEYLGGPSVFLFPPKPKDTLMISRTPEVTCVVVDVSHEDPEVKFNWYVDGVEVHNAKTKPREEQYNSTYRVVSVLTVLHQDWLNGKEYKCKVSNKALPAPIEKTISKAKGQPREPQVYTLPPSRKELTKNQVSLTCLVKGFYPSDIAVEWESNGQPENNYKTTPPVLDSDGSFFLYSKLTVDKSRWQQGNVFSCSVMHEALHNRYTQKSLSLSP heavy 2: not shown light: DIVMTQSPLSLPVTPGEPASISCQASESLVHSNRNTYLHWYLQKPGQSPQLLIYKVSNRFSGVPDRFSGSGSGTDFTLKISRVEAEDVGVYYCSQNTHVPPTFGQGTKVEIERTVAAPSVFIFPPSDEQLKSGTASVVCLLNNFYPREAKVQWKVDNALQSGNSQESVTEQDSKDSTYSLSSTLTLSKADYEKHKVYACEVTHQGLSSPVTKSFNRGEC |
|  | 130 % of control | GpH7-TA2/GpH7-B3-01-15Y/GpL16-k0 (antibody, human IgG1, kappa, H1 G236W; H2 L234Y) heavy 1: QVQLVQSGAEVKKPGASVTVSCKASGYTFTDYEMHWIRQPPGEGLEWIGAIDPKTGDTAYSESFQDRVTLTADKSTSTAYMELSSLTSEDTAVYYCTRFYSYTYWGQGTLVTVSSASTKGPSVFPLAPSSKSTSGGTAALGCLVKDYFPEPVTVSWNSGALTSGVHTFPAVLQSSGLYSLSSVVTVPSSSLGTQTYICNVNHKPSNTKVDKKVEPKSCDKTHTCPPCPAPELLWGPSVFLFPPKPKDTLMISRTPEVTCVVVDVSHEDPEVKFNWYVDGVEVHNAKTKPREEQYNSTYRVVSVLTVLHQDWLNGKEYKCKVSNKALPAPIEKTISKAKGQPREPQVYTLPPSRKELTKNQVSLTCLVKGFYPSDIAVEWESNGQPENNYKTTPPVLDSDGSFFLYSKLTVDKSRWQQGNVFSCSVMHEALHNRYTQKSLSLSP heavy 2: not shown light: DIVMTQSPLSLPVTPGEPASISCQASESLVHSNRNTYLHWYLQKPGQSPQLLIYKVSNRFSGVPDRFSGSGSGTDFTLKISRVEAEDVGVYYCSQNTHVPPTFGQGTKVEIERTVAAPSVFIFPPSDEQLKSGTASVVCLLNNFYPREAKVQWKVDNALQSGNSQESVTEQDSKDSTYSLSSTLTLSKADYEKHKVYACEVTHQGLSSPVTKSFNRGEC |
|  | 70 % of control | GpH7-TA3/GpH7-B3-03-20W/GpL16-k0 (antibody, human IgG1, kappa, H1 S298A; H2 G236W) heavy 1: QVQLVQSGAEVKKPGASVTVSCKASGYTFTDYEMHWIRQPPGEGLEWIGAIDPKTGDTAYSESFQDRVTLTADKSTSTAYMELSSLTSEDTAVYYCTRFYSYTYWGQGTLVTVSSASTKGPSVFPLAPSSKSTSGGTAALGCLVKDYFPEPVTVSWNSGALTSGVHTFPAVLQSSGLYSLSSVVTVPSSSLGTQTYICNVNHKPSNTKVDKKVEPKSCDKTHTCPPCPAPELLGGPSVFLFPPKPKDTLMISRTPEVTCVVVDVSHEDPEVKFNWYVDGVEVHNAKTKPREEQYNATYRVVSVLTVLHQDWLNGKEYKCKVSNKALPAPIEKTISKAKGQPREPQVYTLPPSRKELTKNQVSLTCLVKGFYPSDIAVEWESNGQPENNYKTTPPVLDSDGSFFLYSKLTVDKSRWQQGNVFSCSVMHEALHNRYTQKSLSLSP heavy 2: not shown light: DIVMTQSPLSLPVTPGEPASISCQASESLVHSNRNTYLHWYLQKPGQSPQLLIYKVSNRFSGVPDRFSGSGSGTDFTLKISRVEAEDVGVYYCSQNTHVPPTFGQGTKVEIERTVAAPSVFIFPPSDEQLKSGTASVVCLLNNFYPREAKVQWKVDNALQSGNSQESVTEQDSKDSTYSLSSTLTLSKADYEKHKVYACEVTHQGLSSPVTKSFNRGEC |
